Measured values as given in publication PMC3589550.

Biological target: HAUSP^62–205 (HAUSP TRAF domain) (UniProt Q93009)
Test: ITC

Sequence of HAUSP^62–205 (HAUSP TRAF domain) (Q93009 62-205): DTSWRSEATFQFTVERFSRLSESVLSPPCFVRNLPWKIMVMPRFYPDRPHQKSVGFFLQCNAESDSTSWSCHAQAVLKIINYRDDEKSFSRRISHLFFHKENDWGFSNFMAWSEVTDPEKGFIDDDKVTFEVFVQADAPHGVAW

Substance | Ka [M⁻¹]
p53^350–364 peptide (from UniProt P04637 350-364) | 65000
p53^355–369 peptide (from UniProt P04637 355-369) | 67000
